This is an account of results in publication PMC11891296, “Mechanical forces and ligand binding modulate Pseudomonas aeruginosa PilY1 mechanosensitive protein” (Life Science Alliance, 2025).

The assay has as its target T1, recombinant αVβ5 human integrin extracellular domains (human, UniProt P06756 31-992; P18084 24-719).
T1 construct: integrin alpha-V, human, extracellular domain; integrin beta-5, human, extracellular domain; also called integrin αVβ5 heterodimer; source: bought: R&D Systems
In words: single-molecule magnetic tweezers; PilY1 construct tethered between HaloTag-ligand glass and streptavidin-coated superparamagnetic bead, held at constant low force (5-6 pN, below 7 pN) where I1 and I2 fold and unfold; 200 nM integrin added in binding buffer (10 mM Hepes pH 7.2, 150 mM NaCl, 10 mM ascorbic acid, 2 mM CaCl2, 1 mM MgCl2, 1 mM MnCl2); binding read as shortening of the unfolded extension of I2. The following applies: both partners purified.

T1 sequence (P06756 31-992, chain 1 of 2): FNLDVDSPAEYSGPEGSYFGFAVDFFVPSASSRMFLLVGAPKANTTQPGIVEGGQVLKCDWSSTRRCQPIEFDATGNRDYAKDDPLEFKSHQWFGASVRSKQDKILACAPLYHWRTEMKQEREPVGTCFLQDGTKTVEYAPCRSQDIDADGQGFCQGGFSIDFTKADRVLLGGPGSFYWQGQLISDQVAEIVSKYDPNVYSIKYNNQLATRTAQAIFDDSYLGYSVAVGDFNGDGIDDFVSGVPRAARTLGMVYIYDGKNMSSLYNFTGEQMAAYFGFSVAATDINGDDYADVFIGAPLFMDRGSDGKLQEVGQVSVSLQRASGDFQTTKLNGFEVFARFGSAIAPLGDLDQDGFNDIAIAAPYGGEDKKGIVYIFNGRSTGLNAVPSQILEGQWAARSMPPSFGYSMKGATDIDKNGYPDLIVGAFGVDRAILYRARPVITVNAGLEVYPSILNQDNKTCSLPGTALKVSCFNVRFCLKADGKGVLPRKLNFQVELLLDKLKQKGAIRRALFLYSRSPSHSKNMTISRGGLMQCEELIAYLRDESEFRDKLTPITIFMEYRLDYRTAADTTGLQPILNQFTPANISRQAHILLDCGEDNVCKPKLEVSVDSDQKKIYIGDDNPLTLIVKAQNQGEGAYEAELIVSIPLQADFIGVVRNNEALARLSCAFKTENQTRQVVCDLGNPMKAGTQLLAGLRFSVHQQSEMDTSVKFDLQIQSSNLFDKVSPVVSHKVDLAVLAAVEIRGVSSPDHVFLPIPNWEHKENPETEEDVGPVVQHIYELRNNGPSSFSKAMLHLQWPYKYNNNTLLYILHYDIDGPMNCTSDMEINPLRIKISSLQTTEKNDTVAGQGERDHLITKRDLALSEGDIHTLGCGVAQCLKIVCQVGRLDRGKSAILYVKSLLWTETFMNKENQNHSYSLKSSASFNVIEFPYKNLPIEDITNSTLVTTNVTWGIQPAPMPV
T1 sequence (P18084 24-719, chain 2 of 2): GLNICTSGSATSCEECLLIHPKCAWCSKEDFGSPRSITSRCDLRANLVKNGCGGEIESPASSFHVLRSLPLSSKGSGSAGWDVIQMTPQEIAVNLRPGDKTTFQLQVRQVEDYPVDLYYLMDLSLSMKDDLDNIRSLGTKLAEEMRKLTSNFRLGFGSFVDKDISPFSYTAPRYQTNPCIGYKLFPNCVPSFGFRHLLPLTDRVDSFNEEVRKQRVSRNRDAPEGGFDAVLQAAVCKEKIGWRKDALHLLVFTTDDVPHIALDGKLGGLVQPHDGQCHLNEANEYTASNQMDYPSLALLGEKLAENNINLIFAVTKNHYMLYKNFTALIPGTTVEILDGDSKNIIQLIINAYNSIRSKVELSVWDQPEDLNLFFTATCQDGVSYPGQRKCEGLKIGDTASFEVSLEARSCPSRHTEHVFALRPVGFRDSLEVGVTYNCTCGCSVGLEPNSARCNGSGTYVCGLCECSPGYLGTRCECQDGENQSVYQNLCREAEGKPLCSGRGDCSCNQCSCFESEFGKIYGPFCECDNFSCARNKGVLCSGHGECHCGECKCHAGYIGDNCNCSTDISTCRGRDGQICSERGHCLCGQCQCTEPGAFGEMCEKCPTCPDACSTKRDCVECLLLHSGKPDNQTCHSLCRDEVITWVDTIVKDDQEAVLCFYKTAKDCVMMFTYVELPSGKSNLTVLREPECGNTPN

B1: PilY1^501−1161 chimeric polyprotein (HaloTag-(I32)2-PilY1 residues 501-1161-(I32)2-HisTag-AviTag) (domain or fragment)
chain: ISSSLQEDDTGDKLTRFAYQTSFASDKNWAGDLTRYSLTTQDKATVQTKLWSAQSILDAMPNGGAGRKIMMAGSGTSGLKEFTWGSLSADQQRQLNRDPDRNDVADTKGQDRVAFLRGDRRKENSDNFRTRNSILGDIINSSPATVGKAQYLTYLAQPIEPSGNYSTFAEAQKTRAPRVYVGANDGMLHGFDTDGNETFAFIPSAVFEKLHKLTARGYQGGAHQFYVDGSPVVADAFFGGAWHTVLIGSLRAGGKGLFALDVTDPANIKLLWEIGVDQEPDLGYSFPKPTVARLHNGKWAVVTGNGYSSLNDKAALLIIDLETGAITRKLEVTGRTGVPNGLSSPRLADNNSDGVADYAYAGDLQGNLWRFDLIAGKVNQDDPFSRANDGPAVASSFRVSFGGQPLYSAVDSAGAAQAITAAPSLVRHPTRKGYIVIFGTGKYFENADARADTSRAQTLYGIWDQQTKGEAAGSTPRLTRGNLQQQTLDLQADSTFASTARTIRIASQNPVNWLNNDGSTKQSGWYLDFMVNGTLKGEMLIEDMIAIGQVVLLQTITPNDDPCADGASNWTYGLDPYTGGRTSFTVFDLARQGVVDSKSDYSYNKQNVAVSGTEQKGLGGLTLSTNEQGNPEVCSSGECLTVNPGPNTRGRQNWRPIEGKN
modifications: biotin on the AviTag
notes: gene optimized for expression in E. coli; The HisTag lies between the last I32 and the AviTag; also called PilY1 C-terminal section; source: E. coli BL21 Star, purified (HisPur Cobalt resin, Superdex 200 SEC), biotinylated in vitro; not shown: HaloTag, N-terminal, kept; 2x human titin I32 domain, N-terminal, kept; 2x human titin I32 domain, C-terminal, kept; AviTag (biotinylated), C-terminal, kept
On to B1, for which the binding result is listed as “binds”.
